B1: wild-type AtPHR1^280–360 (pMH-HT construct) (domain or fragment)
chain: not shown
notes: AtPHR1, Arabidopsis thaliana, residues 280-360 (coiled-coil domain); also called AtPHR1 CC; AtPHR^280–360; not shown: 6xHis, N-terminal, cleaved
B2: full-length OsPHR2 (OsPHR2^1-426, wild type) (natural protein)
chain: not shown
notes: OsPHR2, rice MYB-CC transcription factor, residues 1-426, called full-length; also called wild-type OsPHR2; not shown: 8xHis, N-terminal, cleaved; Strep, N-terminal, cleaved; GB1, N-terminal, cleaved
B3: AtPHR1^280–360 KHR/A (domain or fragment)
chain: not shown
notes: AtPHR1, Arabidopsis thaliana, residues 280-360, KHR motif mutated to alanine; not shown: 6xHis, N-terminal, cleaved
B4: wild-type AtPHR1^222–358 (domain or fragment)
chain: not shown
notes: AtPHR1, Arabidopsis thaliana, residues 222-358 (MYB and CC domains only); also called AtPHR1 MYB-CC; untagged AtPHR1^222–358; not shown: 6xHis, N-terminal, cleaved

Target: the molecule itself
Experiment: SEC-RALS; size-exclusion chromatography with right-angle light scattering; 50 µL of 2–10 mg/mL protein, 20 mM HEPES pH 7.5, 150 mM NaCl, Superdex 200 increase 10/300 GL, 25 °C

Row | Protein | stoichiometry N | binding result
1 | B1 | 4 | 
2 | B2 | 4 | 
3 | B3 |  | binds
4 | B4 | 2 | 
